In US10765761B2, “Nucleic acid condensing peptide, nucleic acid condensing peptide set, nucleic acid delivery carrier, nucleic acid delivery method, cell production method, cell detection method and kit” (KABUSHIKI KAISHA TOSHIBA, priority 2016, dated 2020):

How the values were obtained:
plasmid vector (pDNA) [1] = test: Gel retardation assay: condensability and dissociation, Example 2; type: binding; conditions: 0.8% agarose gel, samples of any concentration (FIG. 6); for dissociation: PGA (+) sample; for condensability: PGA (-) sample
Procedure: The condensability of the nucleic acid by the peptide of the embodiment and the dissociation of the peptide and the nucleic acid were estimated by a gel retardation assay.
As samples for the condensability evaluation, 18 sets of 8.0 μL of 10 mM-HEPES (pH: 5.3) were prepared and 1.0 μL of the respective peptide-nucleic-acid solutions of Example 1 and […] were added thereto and mixed, thus preparing mixtures. As samples for the dissociation evaluation, 1.0 μL of peptide-nucleic-acid solutions and 1.0 μL of poly-glutamic-acid (PGA) solutions were added to 8.0 μL of 10 mM-HEPES solutions (pH: 5.3) and mixed, thereby preparing mixtures. After they were let stand still for 15 minutes at room temperature, 1.0 μL of an electrophoretic buffer (50%-sucrose solution) was added to each mixture, and they were mixed well, to carry out electrophoresis with a 0.8%-agarose gel. After the electrophoresis, the nucleic acid dyed with ethidium bromide was visualized by UV irradiation, and the nucleic acids condensed by the peptide and the nucleic acid dissociating with the peptide and moving into a gel were detected.
FIG. 6 is a photograph showing the agarose gel subjected to UV irradiation. Of two lanes indicated by the numbers of the respective samples, the left lane indicates the results of a PGA (−) sample (sample for the condensability evaluation) and the right lane for those of a PGA (+) sample (sample for the dissociation evaluation). When an integrated band with a large molecular weight, which strongly shines is observed in the left lane, it was evaluated as a high condensability. […] The mHP-1 and mHP-3 were excellent both in condensability and dissociation in the samples of any concentration. In particular, they were excellent in the peptide-nucleic-acid solutions (8) and (16).

[2] = Average particle diameter and Zeta potential of liposome (zetasizer), Example 3; type: physicochemical
Procedure: COATSOME/SS-20 (Nippon Oil & Fats), DOPE, cholesterol and DMG-PEG were dissolved into ethanol at a molar ratio of 5:3:1:0.3, to obtain a lipid solution. Two sets of lipid solutions (0.5 ml) put into tubes were prepared, and 0.5 ml of peptide-nucleic-acid solutions (8) (mHP-1) and (16) (mHP-3) of Example 1 were dropped thereto while stirring each lipid solution, thereby forming liposomes. 9 ml of 10 mM-HEPES (pH: 5.3) was added to each of the liposome solutions to make a total amount of 10 ml (each liposome solution will be referred to as “Complex” hereinafter). Further, on an assumption that the liposome is taken into an organism, and liposome solutions (which will be referred to as “HEPES replacement”) in which ethanol, which is the solvent of Complex is substituted by HEPES were produced. The HEPES replacements were produced by condensing each solution of Complex to 1.5 ml with an ultrafiltration film for 300 kDa, adding 8.5 ml of 100 mM-HEPES (pH: 7.4) to each, performing ultrafiltration, thereafter substituting the solvent with 10 mM-HEPES (pH: 7.4), and finally condensing to 0.5 ml. Further, the HEPES replacements were filtered for sterilization with a filter with a pore diameter of 0.45 μm to prepare solutions (which will be referred to as “0.45 μm” hereinafter).
The “peptide-nucleic-acid solution”, “HEPES substituent” and “0.45 micrometer”, each of which contain the protamine, mHP-1 or mHP-3 prepared as above were examined in terms of average particle diameter of liposome, Zeta potential and amount of encapsulation of plasmid. The average particle diameter and Zeta potential were measured using a zetasizer. The amount of encapsulation of plasmid was measured using a Quant-iT PicoGreen (registered trademark) dsDNA assay kit.

plasmid vector (pDNA) [3] = test: Average particle diameter and Zeta potential of peptide-nucleic-acid complexes (zetasizer), Example 1; type: physicochemical; conditions: for characteristics of condensing the nucleic acid: judged from particle diameter and its dispersion (Table 2, FIGS. 4 and 5)
Procedure: The condensability of the nucleic acid by the peptide of the embodiment and the potential of the peptide-nucleic-acid complex were evaluated.
The peptides were each dissolved in 10 mM of HEPES (pH: 5.3) to prepare several peptide solutions having different peptide concentrations.
For the protamine, three peptide solutions were prepared to have peptide concentrations of: (1) 2.1 mg/ml, (2) 2.4 mg/ml and (3) 2.7 mg/ml. For the mHP-4, four peptide solutions were prepared to have peptide concentrations of: (4) 1.8 mg/ml, (5) 2.1 mg/ml, (6) 2.4 mg/ml and (7) 2.7 mg/ml. For the mHP-1, three peptide solutions were prepared to have peptide concentrations of: (8) 2.1 mg/ml, (9) 2.4 mg/ml and (10) 2.7 mg/ml. For the mHP-2, five peptide solutions were prepared to have peptide concentrations of: (11) 1.2 mg/ml, (12) 1.5 mg/ml, (13) 2.1 mg/ml, (14) 2.4 mg/ml and (15) 2.7 mg/ml. For the mHP-3, three peptide solutions were prepared to have peptide concentrations of: (16) 2.1 mg/ml, (17) 2.4 mg/ml and (18) 2.7 mg/ml. Further, plasmid vector (pDNA) was diluted with purified water to prepare a nucleic acid solution having a pDNA concentration of 3.0 mg/ml.
18 sets of nucleic acid solutions (90 μL) put in tubes were prepared and the peptide solutions (1) to (18) (90 μL) described above were dropped respectively therein and mixed while stirring each, to condense the nucleic acids. Thus, the peptide-nucleic-acid complexes were obtained. Then, the mixtures were each diluted with purified water to 25-fold to produce peptide-nucleic-acid solutions. Further, as references, samples containing only each respective peptide were also prepared without adding the nucleic acid solutions thereto.
The average particle diameter and Zeta potential of each of the peptide-nucleic-acid complexes were investigated using the peptide-nucleic-acid solutions. The average particle diameter and Zeta potential were measured using a zetasizer.

[4] = pDNA/peptide 1/0.7 (peptide conc. 2.1 mg/mL)
[5] = pDNA/peptide 1/0.8 (peptide conc. 2.4 mg/mL)
[6] = pDNA/peptide 1/0.9 (peptide conc. 2.7 mg/mL)
[7] = peptide solely, no nucleic acid (Reference)

For “RQRQRGGRRRRRR (Nucleic acid condensing peptide) [mHP-3]”, the dissociation (plasmid vector (pDNA) [1]) was “excellent”, the condensability (plasmid vector (pDNA) [1]) was “excellent” and the “Average particle diameter (zAve)” value ([2]; Peptide-nucleic acid solution) was 113.4 nm. For the same sequence, the Zeta potential ([2]; Peptide-nucleic acid solution) was −43.90 mV, the “Average particle diameter (zAve)” value ([2]; liposome, 0.45 μm filtered) was 218.2 nm and the Zeta potential ([2]; liposome, 0.45 μm filtered) was −2.95 mV. The “Average particle diameter (zAve)” value ([2]; liposome, HEPES substitution) was 240.5 nm, the Zeta potential ([2]; liposome, HEPES substitution) was −3.39 mV and the “characteristics of condensing the nucleic acid” value (plasmid vector (pDNA) [3]) was “excellent”. For the same sequence, the “Average particle diameter (zAve)” value (plasmid vector (pDNA) [3]; [4]) was 135.8 nm, the Zeta potential (plasmid vector (pDNA) [3]; [4]) was −28.1 mV and the “Average particle diameter (zAve)” value (plasmid vector (pDNA) [3]; [5]) was 134.9 nm. For the same sequence, the Zeta potential (plasmid vector (pDNA) [3]; [5]) was −25.9 mV, the “Average particle diameter (zAve)” value (plasmid vector (pDNA) [3]; [6]) was 148.2 nm and the Zeta potential (plasmid vector (pDNA) [3]; [6]) was −28.3 mV. For the same sequence, the “Average particle diameter (zAve)” value (plasmid vector (pDNA) [3]; [7]) was 322.9 nm and the Zeta potential (plasmid vector (pDNA) [3]; [7]) was 17.0 mV.
In the case of “RQRQRYYRQRQRGGRRRRRR (Nucleic acid condensing peptide) [mHP-1]”, the dissociation (plasmid vector (pDNA) [1]) is reported as “excellent”, the condensability (plasmid vector (pDNA) [1]) is reported as “excellent” and the “Average particle diameter (zAve)” value ([2]; Peptide-nucleic acid solution) is reported as 121.4 nm. The Zeta potential ([2]; Peptide-nucleic acid solution) was −44.50 mV, the “Average particle diameter (zAve)” value ([2]; liposome, 0.45 μm filtered) was 222.0 nm and the Zeta potential ([2]; liposome, 0.45 μm filtered) was −5.26 mV. For the same sequence, the “Average particle diameter (zAve)” value ([2]; liposome, HEPES substitution) was 254.1 nm, the Zeta potential ([2]; liposome, HEPES substitution) was −11.30 mV and the “characteristics of condensing the nucleic acid” value (plasmid vector (pDNA) [3]) was “excellent”. For the same sequence, the “Average particle diameter (zAve)” value (plasmid vector (pDNA) [3]; [4]) was 124.0 nm, the Zeta potential (plasmid vector (pDNA) [3]; [4]) was −28.2 mV and the “Average particle diameter (zAve)” value (plasmid vector (pDNA) [3]; [5]) was 133.4 nm. For the same sequence, the Zeta potential (plasmid vector (pDNA) [3]; [5]) was −26.7 mV, the “Average particle diameter (zAve)” value (plasmid vector (pDNA) [3]; [6]) was 158.0 nm and the Zeta potential (plasmid vector (pDNA) [3]; [6]) was −25.5 mV. The “Average particle diameter (zAve)” value (plasmid vector (pDNA) [3]; [7]) was 444.0 nm and the Zeta potential (plasmid vector (pDNA) [3]; [7]) was 37.2 mV.
